Experimental data: publication PMC12597101

Tested on: 151AmF-GFP (azide-exposed GFP, protein part of RGG/DGG) (synthetic (codon-optimized GFP, expressed in E. coli NiCo21(DE3)))
Assay: EMSA (SDS-PAGE gel shift)
Details: clicked to AmF-GFP, 59 pmol GFP + 59 pmol guide, SPAAC at 4 C for 1.5 h, then equal volume of target, 20 min at room temperature, 15% SDS-PAGE, protein stored in 50 mM HEPES …

Sequence	binding signal (DGG (covalent DNA guide), DBCO on guide DNA) [% bound]	binding signal (RGG (covalent RNA guide), DBCO on guide RNA) [% bound]
TAACCCTAACCCTAACCCTAACCCTA / GCUAGAUCCGUAGGGUUAGGGUUAGGGUUAGGGUUAACCUCCGACC [Tel26-DBCO-DNA guide + Target RNA [Tel26]]	86	–
UAACCCUAACCCUAACCCUAACCCUA / GCUAGAUCCGUAGGGUUAGGGUUAGGGUUAGGGUUAACCUCCGACC [Tel26-DBCO-RNA guide + Target RNA [Tel26]]	–	88
